The record followed here is patent publication US20220227811A1.

For assay [1], the target named is CD137 on Jurkat reporter cells (Promega CD137 luciferase reporter assay, kit CS196005), Q07011. The assay is described as follows: cell-based or functional assay.
In assay [2] the target is CD137 on human PBMCs (anti-CD3 stimulated, co-culture assay) (human), Q07011. Kind of assay: cell-based or functional assay.
Assay [3] deals with human EphA2 protein (human), P29317. Kind of assay: SPR (Biacore T200), biotinylated EphA2 captured on a streptavidin chip, peptide as analyte, 1:1 fit.
Assay [4] has the same target. Kind of assay: SPR (Biacore), biotinylated human EphA2 captured on a streptavidin chip, BCY13272 as analyte, 1:1 fit (Scrubber).
The target in assay [5] is Recombinant human CD137 (R&D systems) (human), Q07011. The assay is described as follows: SPR (Biacore), biotinylated human CD137 captured on a streptavidin chip, BCY13272 as analyte, 1:1 fit (Scrubber).

Where “and” joins values, the source holds several entries; their conditions need not be identical. Equal values may be shown once. Starred links: 1 amine or outer side, 2 acyl side, 3 side chain; linkers in the order of their positions; H or OH if unused. Positions of bridges follow the written chain, without caps; N, C: chain ends. Non-standard residues stand in square brackets, D forms with d. Chains are numbered I, II in the order given. No end group written: not given here. *: point of attachment. TATA = O=C(CC[*:1])N1CN(C(=O)CC[*:2])CN(C(=O)CC[*:3])C1; d1Nal = N[C@H](Cc1cccc2ccccc12)C(=O)O; Hyp = O=C(O)[C@@H]1C[C@@H](O)CN1; hArg = N=C(N)NCCCC[C@H](N)C(=O)O; tBuAla = CC(C)(C)C[C@H](N)C(=O)O; Nle = CCCC[C@H](N)C(=O)O; Pent4ynoyl = C#CCCC(=O)* A value given as a limit tells only on which side of the number the result lay.

Sequence of CD137 on Jurkat reporter cells (Promega CD137 luciferase reporter assay, kit CS196005), Q07011 (Q07011 24-255 limits assumed): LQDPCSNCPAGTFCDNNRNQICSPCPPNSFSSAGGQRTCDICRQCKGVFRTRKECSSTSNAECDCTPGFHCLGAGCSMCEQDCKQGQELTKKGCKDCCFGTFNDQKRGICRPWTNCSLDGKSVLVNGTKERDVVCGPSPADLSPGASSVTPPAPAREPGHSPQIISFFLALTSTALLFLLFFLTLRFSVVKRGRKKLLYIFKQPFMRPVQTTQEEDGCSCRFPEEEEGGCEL
Sequence of human EphA2 protein (human), P29317 (P29317 25-534 limits assumed): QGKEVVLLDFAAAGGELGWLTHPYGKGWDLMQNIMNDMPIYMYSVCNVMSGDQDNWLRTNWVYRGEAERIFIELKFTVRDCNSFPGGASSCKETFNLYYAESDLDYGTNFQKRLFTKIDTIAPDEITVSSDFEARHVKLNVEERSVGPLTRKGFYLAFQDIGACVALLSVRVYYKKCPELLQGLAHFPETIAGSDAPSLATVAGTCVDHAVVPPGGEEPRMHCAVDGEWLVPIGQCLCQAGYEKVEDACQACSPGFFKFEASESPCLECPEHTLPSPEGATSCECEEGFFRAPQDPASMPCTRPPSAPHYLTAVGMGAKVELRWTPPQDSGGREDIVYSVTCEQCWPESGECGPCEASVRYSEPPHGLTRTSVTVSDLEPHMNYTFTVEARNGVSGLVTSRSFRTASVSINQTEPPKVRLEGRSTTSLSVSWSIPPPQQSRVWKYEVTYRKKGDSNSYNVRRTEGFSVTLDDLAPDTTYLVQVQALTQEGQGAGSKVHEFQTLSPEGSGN
Sequence of Recombinant human CD137 (R&D systems) (human), Q07011 (Q07011 24-186 limits assumed): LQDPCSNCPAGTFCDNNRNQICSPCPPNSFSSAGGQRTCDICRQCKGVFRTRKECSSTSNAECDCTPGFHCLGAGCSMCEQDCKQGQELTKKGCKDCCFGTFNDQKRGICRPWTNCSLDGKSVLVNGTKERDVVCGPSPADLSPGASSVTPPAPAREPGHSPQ
Sequence of CD137 on human PBMCs (anti-CD3 stimulated, co-culture assay) (human), Q07011 (Q07011 24-255): as the sequence (Q07011 24-255 limits assumed) above

B1: EphA2/CD137 heterotandem bicyclic peptide complex BCY13272 (peptide)
peptide 1: A[hArg]DC[Hyp]LVNPLCLEP[d1Nal]WTC
peptide 2: Ac-C[tBuAla]PE[dK](Pent4ynoyl)PYCFADPY[Nle]CA
modifications: linker I:4-I:11-I:18, II:1-II:8-II:15 via TATA; not fully specified (N-terminus, bridges); also: chain 1 N-terminus coupled to N-(acid-PEG3)-N-bis(PEG3-azide) linker, D-Lys(PYA) of chain 2 clicked (triazole) to linker azide arm, complex has a second BCY8928 copy not listed as a chain
Regarding B1, in assay [1], the EC50 (nM), CD137 luciferase reporter assay, co-culture with EphA2 cell line A549 was 0.107 nM and 0.132 nM and 0.147 nM; the EC50 (nM), CD137 luciferase reporter assay, co-culture with EphA2 cell line HT-29 is 0.567 nM and 0.187 nM and 0.205 nM; the EC50 (nM), CD137 luciferase reporter assay, co-culture with EphA2 cell line PC-3 was 0.245 nM and 0.0805 nM and 0.0898 nM; the Emax (fold induction over background), CD137 luciferase reporter assay, co-culture with EphA2 cell line A549 is 23.6 fold and 30.2 fold and 25.7 fold. Besides, in assay [1], the Emax (fold induction over background), CD137 luciferase reporter assay, co-culture with EphA2 cell line HT-29 was 36.5 fold and 26 fold and 36.4 fold; the Emax (fold induction over background), CD137 luciferase reporter assay, co-culture with EphA2 cell line PC-3 was 44.5 fold and 44.2 fold and 53 fold; the Geo mean EC50/cell line, CD137 luciferase reporter assay, co-culture with EphA2 cell line A549 is 0.127 nM; the Geo mean EC50/cell line, CD137 luciferase reporter assay, co-culture with EphA2 cell line HT-29 amounted to 0.279 nM. In assay [1], this molecule registered a Geo mean EC50/cell line, CD137 luciferase reporter assay, co-culture with EphA2 cell line PC-3 of 0.117 nM. In assay [2], the EC50 (nM) of IL-2 cytokine secretion, human PBMC co-culture with HT-1080 cells (N = 4) was 0.55 nM and the EC50 (nM) of IL-2 cytokine secretion, human PBMC co-culture with MC38 cells (N = 5) came out at 0.79 nM. Besides, in assay [3], the Kd came to 2 nM. In assay [4], this molecule gave a koff of 0.00102 s⁻¹ and a kon of 502000 M⁻¹ s⁻¹. For the same molecule, in assay [5], the Kd is under 0.0331 nM, the koff was under 1e-05 s⁻¹ and the kon amounted to 302000 M⁻¹ s⁻¹.
